Assay results: patent US20250262210A1 (TRUSTEES OF COLUMBIA UNIVERSITY IN THE CITY OF NEW YORK, published 2025)

What was measured:
Experiment in all cases: IP/MS, LZTR1 R810W-FLAG, U87
[1] = target: ARHGEF28 (human, UniProt Q8N1W1 1-1705, limits assumed)
How it was run: (§1)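 Read-out: spectral counts from LC-MS/MS (Orbitrap Fusion) after MaxQuant identification. Variable modifications were Met oxidation, protein N-terminal acetylation and N/Q deamidation.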

[2] = target: CA9 (human, UniProt Q16790 38-459)
How it was run: as §1

[3] = target: TTI1 (human, UniProt O43156 1-1089)
Sequence of TTI1 (O43156 whole entry): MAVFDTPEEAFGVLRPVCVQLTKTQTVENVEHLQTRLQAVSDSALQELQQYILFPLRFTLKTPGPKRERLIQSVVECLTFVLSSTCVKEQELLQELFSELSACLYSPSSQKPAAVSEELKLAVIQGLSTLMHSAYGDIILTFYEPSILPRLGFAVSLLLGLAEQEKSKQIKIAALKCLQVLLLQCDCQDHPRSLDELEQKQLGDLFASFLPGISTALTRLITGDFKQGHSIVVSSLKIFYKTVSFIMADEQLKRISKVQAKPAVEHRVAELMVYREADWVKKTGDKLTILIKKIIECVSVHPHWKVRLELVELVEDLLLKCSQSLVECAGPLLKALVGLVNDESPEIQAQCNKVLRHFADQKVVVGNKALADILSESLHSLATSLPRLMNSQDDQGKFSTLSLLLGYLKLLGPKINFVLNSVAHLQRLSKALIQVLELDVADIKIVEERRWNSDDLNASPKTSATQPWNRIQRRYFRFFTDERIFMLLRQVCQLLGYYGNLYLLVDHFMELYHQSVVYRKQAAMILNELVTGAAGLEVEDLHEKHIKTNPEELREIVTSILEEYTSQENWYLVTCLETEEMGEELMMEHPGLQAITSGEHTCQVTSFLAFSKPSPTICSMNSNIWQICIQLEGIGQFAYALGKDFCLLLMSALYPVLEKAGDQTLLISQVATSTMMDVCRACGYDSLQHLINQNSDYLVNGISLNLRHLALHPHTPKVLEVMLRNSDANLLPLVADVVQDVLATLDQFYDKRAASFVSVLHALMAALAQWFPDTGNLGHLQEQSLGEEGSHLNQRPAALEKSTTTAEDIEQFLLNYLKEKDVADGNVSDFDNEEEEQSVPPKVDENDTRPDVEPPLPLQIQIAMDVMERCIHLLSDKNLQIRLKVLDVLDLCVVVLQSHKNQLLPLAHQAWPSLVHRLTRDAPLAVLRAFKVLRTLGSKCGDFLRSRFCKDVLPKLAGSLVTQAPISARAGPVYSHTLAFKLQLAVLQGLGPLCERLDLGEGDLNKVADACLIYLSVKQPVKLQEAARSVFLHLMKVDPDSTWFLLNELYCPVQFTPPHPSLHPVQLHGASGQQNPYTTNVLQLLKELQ
How it was run: as §1

[4] = target: T1, WDR6 (human, UniProt Q9NNW5 1-1121)
T1 sequence (looked up): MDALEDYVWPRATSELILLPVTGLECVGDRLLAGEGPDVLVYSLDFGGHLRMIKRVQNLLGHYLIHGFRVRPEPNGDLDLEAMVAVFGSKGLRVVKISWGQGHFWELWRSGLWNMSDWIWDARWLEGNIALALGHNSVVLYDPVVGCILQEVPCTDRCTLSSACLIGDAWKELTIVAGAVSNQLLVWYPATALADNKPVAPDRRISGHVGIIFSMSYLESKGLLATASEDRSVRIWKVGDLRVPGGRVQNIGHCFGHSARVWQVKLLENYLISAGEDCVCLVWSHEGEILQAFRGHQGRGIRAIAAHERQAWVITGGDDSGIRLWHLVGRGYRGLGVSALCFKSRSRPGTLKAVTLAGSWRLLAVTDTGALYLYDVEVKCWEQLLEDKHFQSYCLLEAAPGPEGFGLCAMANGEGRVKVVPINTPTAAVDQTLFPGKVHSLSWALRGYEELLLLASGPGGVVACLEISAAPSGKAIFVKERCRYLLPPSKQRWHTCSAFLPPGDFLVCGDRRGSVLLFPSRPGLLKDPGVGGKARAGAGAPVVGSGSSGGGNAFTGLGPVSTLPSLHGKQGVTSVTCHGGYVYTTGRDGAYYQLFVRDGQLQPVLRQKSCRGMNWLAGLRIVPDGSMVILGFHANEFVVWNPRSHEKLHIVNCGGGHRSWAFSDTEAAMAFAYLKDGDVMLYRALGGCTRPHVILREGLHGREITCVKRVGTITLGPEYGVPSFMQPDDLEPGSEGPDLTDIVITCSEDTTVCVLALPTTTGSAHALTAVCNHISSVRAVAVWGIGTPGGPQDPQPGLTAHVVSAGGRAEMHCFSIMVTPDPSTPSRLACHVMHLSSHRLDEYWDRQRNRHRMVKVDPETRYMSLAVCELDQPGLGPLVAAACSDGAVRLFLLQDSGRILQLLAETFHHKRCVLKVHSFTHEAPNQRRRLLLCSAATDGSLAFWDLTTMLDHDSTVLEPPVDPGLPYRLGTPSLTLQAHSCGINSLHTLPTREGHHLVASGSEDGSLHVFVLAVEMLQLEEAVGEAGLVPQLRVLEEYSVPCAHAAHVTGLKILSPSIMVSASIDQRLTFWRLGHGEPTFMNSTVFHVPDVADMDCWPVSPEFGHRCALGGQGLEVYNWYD
How it was run: as §1

[5] = target: T2, EMC1 (human, UniProt Q8N766 23-993, limits assumed)
T2 sequence (looked up): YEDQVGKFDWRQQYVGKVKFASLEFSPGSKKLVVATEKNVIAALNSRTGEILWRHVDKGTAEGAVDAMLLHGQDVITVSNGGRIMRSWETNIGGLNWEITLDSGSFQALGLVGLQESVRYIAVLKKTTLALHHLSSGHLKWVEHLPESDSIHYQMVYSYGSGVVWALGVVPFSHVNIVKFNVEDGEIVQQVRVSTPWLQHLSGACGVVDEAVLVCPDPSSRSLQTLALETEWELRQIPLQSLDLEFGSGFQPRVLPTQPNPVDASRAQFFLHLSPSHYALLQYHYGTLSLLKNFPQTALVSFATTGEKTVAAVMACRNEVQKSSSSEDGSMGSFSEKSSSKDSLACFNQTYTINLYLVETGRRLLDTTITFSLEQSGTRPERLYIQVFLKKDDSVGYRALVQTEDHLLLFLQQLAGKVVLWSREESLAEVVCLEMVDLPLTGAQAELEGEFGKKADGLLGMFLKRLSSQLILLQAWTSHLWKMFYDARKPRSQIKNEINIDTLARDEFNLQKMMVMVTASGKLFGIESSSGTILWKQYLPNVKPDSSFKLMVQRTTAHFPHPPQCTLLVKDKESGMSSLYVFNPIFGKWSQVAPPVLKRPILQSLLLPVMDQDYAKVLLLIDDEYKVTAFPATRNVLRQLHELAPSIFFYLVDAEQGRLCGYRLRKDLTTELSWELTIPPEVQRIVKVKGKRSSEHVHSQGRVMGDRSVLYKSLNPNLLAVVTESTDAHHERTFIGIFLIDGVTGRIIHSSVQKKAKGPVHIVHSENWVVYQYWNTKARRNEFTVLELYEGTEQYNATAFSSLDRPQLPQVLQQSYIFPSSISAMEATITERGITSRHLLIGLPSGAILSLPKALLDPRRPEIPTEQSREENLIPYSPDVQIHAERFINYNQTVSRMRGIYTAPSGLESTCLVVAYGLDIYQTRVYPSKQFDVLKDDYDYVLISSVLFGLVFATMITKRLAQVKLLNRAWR
How it was run: as §1

Measured: binding result

Sequence of ARHGEF28 (Q8N1W1 whole entry, the tested form may be a part): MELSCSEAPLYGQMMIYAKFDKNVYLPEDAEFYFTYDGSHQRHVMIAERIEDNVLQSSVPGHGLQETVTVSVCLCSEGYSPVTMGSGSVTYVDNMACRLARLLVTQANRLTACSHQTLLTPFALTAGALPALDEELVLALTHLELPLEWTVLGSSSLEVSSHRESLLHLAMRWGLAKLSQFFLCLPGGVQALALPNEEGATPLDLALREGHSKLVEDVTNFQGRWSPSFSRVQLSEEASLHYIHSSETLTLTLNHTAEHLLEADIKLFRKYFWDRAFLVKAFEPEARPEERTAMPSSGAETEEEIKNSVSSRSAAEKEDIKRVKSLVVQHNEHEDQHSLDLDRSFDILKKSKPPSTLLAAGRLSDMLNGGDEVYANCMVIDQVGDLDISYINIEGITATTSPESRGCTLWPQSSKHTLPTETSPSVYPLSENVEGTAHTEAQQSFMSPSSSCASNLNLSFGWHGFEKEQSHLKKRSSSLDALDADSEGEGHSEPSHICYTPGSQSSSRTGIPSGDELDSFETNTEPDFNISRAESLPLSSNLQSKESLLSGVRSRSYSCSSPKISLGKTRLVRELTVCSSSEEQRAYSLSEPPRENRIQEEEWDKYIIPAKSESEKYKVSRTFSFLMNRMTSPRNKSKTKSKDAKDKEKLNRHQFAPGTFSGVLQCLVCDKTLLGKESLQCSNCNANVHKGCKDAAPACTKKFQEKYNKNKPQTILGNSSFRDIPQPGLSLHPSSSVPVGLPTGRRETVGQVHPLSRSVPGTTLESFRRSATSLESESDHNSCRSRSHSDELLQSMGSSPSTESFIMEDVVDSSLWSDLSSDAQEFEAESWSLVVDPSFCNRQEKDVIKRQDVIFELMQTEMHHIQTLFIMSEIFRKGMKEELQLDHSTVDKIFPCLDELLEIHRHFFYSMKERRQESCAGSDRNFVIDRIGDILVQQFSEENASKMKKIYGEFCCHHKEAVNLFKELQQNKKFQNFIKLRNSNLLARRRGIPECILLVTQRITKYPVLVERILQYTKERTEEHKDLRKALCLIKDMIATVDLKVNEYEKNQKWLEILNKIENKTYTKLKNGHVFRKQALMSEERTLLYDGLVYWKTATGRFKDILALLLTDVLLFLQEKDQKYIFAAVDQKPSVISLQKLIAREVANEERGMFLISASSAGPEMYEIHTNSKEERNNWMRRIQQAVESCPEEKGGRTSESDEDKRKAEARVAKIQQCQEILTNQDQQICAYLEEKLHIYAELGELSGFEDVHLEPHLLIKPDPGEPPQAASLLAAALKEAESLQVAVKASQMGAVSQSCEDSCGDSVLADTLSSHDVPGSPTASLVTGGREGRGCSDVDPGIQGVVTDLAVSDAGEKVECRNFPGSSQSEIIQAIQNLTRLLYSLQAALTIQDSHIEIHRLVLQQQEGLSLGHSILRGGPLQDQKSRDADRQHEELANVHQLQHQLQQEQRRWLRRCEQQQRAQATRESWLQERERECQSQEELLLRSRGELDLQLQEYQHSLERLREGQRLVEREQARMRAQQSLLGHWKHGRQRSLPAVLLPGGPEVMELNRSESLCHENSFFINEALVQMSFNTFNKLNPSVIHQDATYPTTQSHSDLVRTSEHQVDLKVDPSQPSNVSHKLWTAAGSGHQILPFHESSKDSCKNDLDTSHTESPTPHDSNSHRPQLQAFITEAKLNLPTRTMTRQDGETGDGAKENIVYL

B1: LZTR1 R810W-FLAG (other, human, UniProt Q8N653 1-840, looked up)
chain: MAGPGSTGGQIGAAALAGGARSKVAPSVDFDHSCSDSVEYLTLNFGPFETVHRWRRLPPCDEFVGARRSKHTVVAYKDAIYVFGGDNGKTMLNDLLRFDVKDCSWCRAFTTGTPPAPRYHHSAVVYGSSMFVFGGYTGDIYSNSNLKNKNDLFEYKFATGQWTEWKIEGRLPVARSAHGATVYSDKLWIFAGYDGNARLNDMWTIGLQDRELTCWEEVAQSGEIPPSCCNFPVAVCRDKMFVFSGQSGAKITNNLFQFEFKDKTWTRIPTEHLLRGSPPPPQRRYGHTMVAFDRHLYVFGGAADNTLPNELHCYDVDFQTWEVVQPSSDSEVGGAEVPERACASEEVPTLTYEERVGFKKSRDVFGLDFGTTSAKQPTQPASELPSGRLFHAAAVISDAMYIFGGTVDNNIRSGEMYRFQFSCYPKCTLHEDYGRLWESRQFCDVEFVLGEKEECVQGHVAIVTARSRWLRRKITQARERLAQKLEQEAAPVPREAPGVAAGGARPPLLHVAIREAEARPFEVLMQFLYTDKIKYPRKGHVEDVLLIMDVYKLALSFQLCRLEQLCRQYIEASVDLQNVLVVCESAARLQLSQLKEHCLNFVVKESHFNQVIMMKEFERLSSPLIVEIVRRKQQPPPRTPLDQPVDIGTSLIQDMKAYLEGAGAEFCDITLLLDGHPRPAHKAILAARSSYFEAMFRSFMPEDGQVNISIGEMVPSRQAFESMLRYIYYGEVNMPPEDSLYLFAAPYYYGFYNNRLQAYCKQNLEMNVTVQNVLQILEAADKTQALDMKRHCLHIIVHQFTKVSKLPTLWSLSQQLLLDIIDSLASHISDKQCAELGADI
notes: Stably expressed in U87 cells by lentivirus; also called LZTR1-FLAG-R810W; LZTR1 RW; not shown: FLAG tag
binds: all assays above
